Several values for one entry are separate records, joined by “and”; a condition that tells them apart may be missing. Equal entries are not always repeated.
Biological target: the molecule itself
Test: native gel or EMSA

| Protein | stoichiometry N |
| --- | --- |
| full length rat phenylalanine hydroxylase (PAH) (enzyme, UniProt P04176 1-453, looked up) MAAVVLENGVLSRKLSDFGQETSYIEDNSNQNGAISLIFSLKEEVGALAKVLRLFEENDINLTHIESRPSRLNKDEYEFFTYLDKRTKPVLGSIIKSLRNDIGATVHELSRDKEKNTVPWFPRTIQELDRFANQILSYGAELDADHPGFKDPVYRARRKQFADIAYNYRHGQPIPRVEYTEEEKQTWGTVFRTLKALYKTHACYEHNHIFPLLEKYCGFREDNIPQLEDVSQFLQTCTGFRLRPVAGLLSSRDFLGGLAFRVFHCTQYIRHGSKPMYTPEPDICHELLGHVPLFSDRSFAQFSQEIGLASLGAPDEYIEKLATIYWFTVEFGLCKEGDSIKAYGAGLLSSFGELQYCLSDKPKLLPLELEKTACQEYSVTEFQPLYYVAESFSDAKEKVRTFAATIPRPFSVRYDPYTQRVEVLDNTQQLKILADSINSEVGILCNALQKIKS | 4 and 2 |
| full length human phenylalanine hydroxylase (PAH) (enzyme, UniProt P00439 1-452, looked up) MSTAVLENPGLGRKLSDFGQETSYIEDNCNQNGAISLIFSLKEEVGALAKVLRLFEENDVNLTHIESRPSRLKKDEYEFFTHLDKRSLPALTNIIKILRHDIGATVHELSRDKKKDTVPWFPRTIQELDRFANQILSYGAELDADHPGFKDPVYRARRKQFADIAYNYRHGQPIPRVEYMEEEKKTWGTVFKTLKSLYKTHACYEYNHIFPLLEKYCGFHEDNIPQLEDVSQFLQTCTGFRLRPVAGLLSSRDFLGGLAFRVFHCTQYIRHGSKPMYTPEPDICHELLGHVPLFSDRSFAQFSQEIGLASLGAPDEYIEKLATIYWFTVEFGLCKQGDSIKAYGAGLLSSFGELQYCLSEKPKLLPLELEKTAIQNYTVTEFQPLYYVAESFNDAKEKVRNFAATIPRPFSVRYDPYTQRIEVLDNTQQLKILADSINSEIGILCSALQKIK | 4 and 2 |

Source: paper PMC3580015 (Archives of biochemistry and biophysics, 2013)
